The target of data set [1] is T1, GST-Bicc1-KH (UniProt Q99MQ1).
T1 sequence (Q99MQ1 whole entry, looked up): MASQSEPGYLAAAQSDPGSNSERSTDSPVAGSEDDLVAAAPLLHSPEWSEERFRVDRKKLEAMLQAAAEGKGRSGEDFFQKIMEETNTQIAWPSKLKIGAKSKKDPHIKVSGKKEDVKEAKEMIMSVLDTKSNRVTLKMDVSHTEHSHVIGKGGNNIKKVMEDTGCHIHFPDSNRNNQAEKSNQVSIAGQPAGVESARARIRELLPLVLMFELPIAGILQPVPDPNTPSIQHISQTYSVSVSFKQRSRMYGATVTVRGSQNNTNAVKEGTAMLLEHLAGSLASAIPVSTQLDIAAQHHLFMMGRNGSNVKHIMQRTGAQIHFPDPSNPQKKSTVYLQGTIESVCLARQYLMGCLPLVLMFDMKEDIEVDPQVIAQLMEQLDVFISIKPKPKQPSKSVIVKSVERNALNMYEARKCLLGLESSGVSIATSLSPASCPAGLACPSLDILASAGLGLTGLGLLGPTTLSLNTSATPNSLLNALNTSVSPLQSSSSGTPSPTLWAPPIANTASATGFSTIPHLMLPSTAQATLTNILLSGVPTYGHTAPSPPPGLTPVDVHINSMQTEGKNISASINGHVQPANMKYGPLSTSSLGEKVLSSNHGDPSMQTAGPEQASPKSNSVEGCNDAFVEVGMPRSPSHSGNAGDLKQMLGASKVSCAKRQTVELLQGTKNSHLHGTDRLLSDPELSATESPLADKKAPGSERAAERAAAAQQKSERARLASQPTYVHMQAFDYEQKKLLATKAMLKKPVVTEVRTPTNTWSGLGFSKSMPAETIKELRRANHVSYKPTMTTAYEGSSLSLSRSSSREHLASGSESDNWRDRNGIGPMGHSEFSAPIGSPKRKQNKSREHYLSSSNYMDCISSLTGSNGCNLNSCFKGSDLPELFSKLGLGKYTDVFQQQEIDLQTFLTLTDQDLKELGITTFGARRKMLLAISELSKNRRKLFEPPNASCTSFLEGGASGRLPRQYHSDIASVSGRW
In words: EMSA. Particulars: RNP1; apparent Kd; yeast tRNA present; 10 mM Tris-HCl pH 8, 100 mM KCl, 2.5 mM MgCl2, 2.5% glycerol, 1 mM DTT, 1 ug yeast tRNA in 20 uL, on ice 30 min; 1 pmol tagged RNA + 2.5 pmol DNA probe; 5% …. A general note: In EMSA bound probe runs differently from free probe, usually more slowly.

In data set [2] the target is T1, GST-Bicc1-KH. In words: competition EMSA. Particulars: 200 nM protein, 10 mM Tris-HCl pH 8, 100 mM KCl, 2.5 mM MgCl2, 2.5% glycerol, 1 mM DTT, 1 ug yeast tRNA in 20 uL, on ice 30 min, 1 pmol tagged RNA + 2.5 pmol DNA probe, 5% ….

For the sequence “GAAAGACGUGACCUGAAUGAUGUGCAUCGGGUCAAGAGAGCAGAAUGUCUGGGCAACAGGCUCAGG / CTGAGCCTGTTGCCCAGAC [Dand5 3'-UTR 66-110 probe]”, in the data set with GST-Bicc1-KH [1], the Kd turned out to be 0.12 µM.

For “GCUGAGCAUCCUAGAGGAAUGCGCAGGACAUGAAUGAACCUUGGCAAGAAGCAGGAGACGCAAUAGAAAGACGUGACCUGAAUGAUGUGCAUCGGGUCAAGAGAGCAGAAUUGGACAGGGCCAGAAUACUAGACAUGGUCCCCCAGUCAUGGGUUUAGACCACUAAUAGUCGUAGAAUGUGGGGCUAGGGUAUAACUCAGUGGGAGAGGGCUUGCCUAGCAUGCAUGUCUGGGCAACAGGCUCAGG / CTGAGCCTGTTGCCCAGAC [Dand5 3'-UTR 1-225 probe]”, in the data set with GST-Bicc1-KH [1], the Kd amounted to 0.233 µM.

Broadly, the IC50 is the concentration at which inhibition is half-maximal. Take “GAAAGACGUAAGCUGAAUGAUGUGCAUCGGGUCAAGAGAGCAGAA [66-110 Mut2 (UGAC to UAAG)]”: the IC50 with GST-Bicc1-KH [2] (vs labelled 66-110) came to 0.654 µM.

For the sequence “GAAAGACGUGACCUGAAUGAUGUGCAUCGGGUCACGUCUUUCGAA [66-110 Stem+ (GACG masked in elongated stem)]”, the IC50 in the data set with GST-Bicc1-KH [2] (vs labelled 66-110) is > 1 µM.

On to “UGAACCUUGGCAAGAAGCAGGAGACGCAAUAGAAAGACGUGACCUGAAUGAUGUGCAUCGGGUCAAGAGAGCAGAAUUGGACAGGGCCAGAAUACUAGACAUGGUCCCCCAGUCAUGGGUUUAUGUCUGGGCAACAGGCUCAGG / CTGAGCCTGTTGCCCAGAC [Dand5 3'-UTR 35-157 probe]”, for which the Kd with GST-Bicc1-KH [1] is 0.12 µM.

On to “UGAACCUUGGCAAGAAGCAGGAGACGCAAUAGAAAGACGUGACCUGAAUGAUGUGCAUCGGGUCAAGAGAGCAGAAUUGGACAGGGCCAGAAUACUAGACAUGGUCCCCCAGUCAUGGGUUUA [Dand5 3'-UTR 35-157 competitor]”, for which the half-inhibitory concentration (IC50) with GST-Bicc1-KH [2] (vs labelled 35-157) turned out to be 0.191 µM.

As to “GAAAAAGGUGACCUGAAUGAUGUGCAUCGGGUCAAGAGAGCAGAA [66-110 Mut1 (GACG to AAGG)]”, the IC50 with GST-Bicc1-KH [2] (vs labelled 66-110) is > 1 µM.

As for “UGAAGACGUGACUUCUAUUCGUAUGUGAUAUGUGGAGGUUAAAAA [226-270 8-mer (GCCCUGGG to GACGUGAC)]”, the IC50 with GST-Bicc1-KH [2] (vs labelled 66-110) came to 0.392 µM.

Take “GAAAGACGUGACCUGAAUGAUGUGCAUCGGGUCAAGAGAGCAGAA [Dand5 3'-UTR 66-110 competitor]”: in the data set with GST-Bicc1-KH [2] (vs labelled 66-110), the IC50 worked out at 0.203 µM.

Take “UGAAGCCCUGGGUUCUAUUCGUAUGUGAUAUGUGGAGGUUAAAAAAAGGUGAAAAUUAGCUAUAGUGUAUGAUUAGCCCUGUGUGAGAGGGAACAUUCAUGCCACAAUCACUAACUCACGUCCUCCUCAGGAAUCCUCAGCAGUCCCGCAAGGUAGAAUUUCACCAUGGGUCAUUUUACAGAUGAGGAAACCGAAGCUAU [Dand5 3'-UTR 226-425 (distal) competitor]”: in the data set with GST-Bicc1-KH [2] (vs labelled 1-225), the concentration for half-maximal inhibition (IC50) was > 1 µM.

In the case of “GCUGAGCAUCCUAGAGGAAUGCGCAGGACAUGAAUGAACCUUGGCAAGAAGCAGGAGACGCAAUAGAAAGACGUGACCUGAAUGAUGUGCAUCGGGUCAAGAGAGCAGAAUUGGACAGGGCCAGAAUACUAGACAUGGUCCCCCAGUCAUGGGUUUAGACCACUAAUAGUCGUAGAAUGUGGGGCUAGGGUAUAACUCAGUGGGAGAGGGCUUGCCUAGCAUGCA [Dand5 3'-UTR 1-225 competitor]”, the IC50 with GST-Bicc1-KH [2] (vs labelled 1-225) came to 0.283 µM.

For the origin of these results see article PMC8249388.
